What was measured:
KDR (1-3) monomer [1] = target: T1, KDR (1-3) monomer (UniProt P35968 20-327, limits assumed, biotin-labeled in the ELISA of Example 8); assay: competition ELISA: plate coated with VEGF (8-109), 100 pM biotin-labeled KDR(1-3), serial dilutions of the competing VEGF (Example 8)
T1 construct: domain: domains 1 to 3; Genentech reagent; also called domains 1 to 3 of KDR
Procedure: (§1) After 1 hour, the plates were washed, and the bound protein stained with streptavidin horseradish peroxidase conjugate (Pharmacia) and assayed. Affinities were estimated as IC₅₀ values: the concentration of KDR(1-3) or Flt(1-3) that blocked 50% of protein binding.

Flt-1 (1-3) monomer = target: T2, Flt-1 (1-3) monomer (UniProt P17948 27-331, limits assumed, biotin-labeled in the ELISA of Example 8); assay: competition ELISA: plate coated with VEGF (8-109), 100 pM biotin-labeled Flt1(1-3), serial dilutions of the competing VEGF (Example 8)
T2 construct: domain: domains 1 to 3; Genentech reagent; also called Flt(1-3); domains 1 to 3 of Flt-1
T2 sequence (P17948 27-331 limits assumed): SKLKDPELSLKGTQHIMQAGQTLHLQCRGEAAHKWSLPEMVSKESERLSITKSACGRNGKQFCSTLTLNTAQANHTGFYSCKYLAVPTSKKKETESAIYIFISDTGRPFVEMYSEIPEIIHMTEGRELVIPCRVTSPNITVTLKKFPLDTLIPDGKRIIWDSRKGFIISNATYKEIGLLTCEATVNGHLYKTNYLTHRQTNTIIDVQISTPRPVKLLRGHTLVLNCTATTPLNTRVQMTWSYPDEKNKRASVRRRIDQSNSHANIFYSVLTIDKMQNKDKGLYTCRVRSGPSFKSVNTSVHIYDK
Procedure: as §1

[2] = target: T3, Flt-IgG (a chimeric Flt-human Fc molecule) (UniProt P17948 27-758, limits assumed); assay: competition ELISA vs biotinylated native VEGF, Flt-IgG captured by anti-Fc
T3 construct: Only described as a chimeric Flt-human Fc molecule; not shown: human Fc
T3 sequence (P17948 27-758 limits assumed, change not shown): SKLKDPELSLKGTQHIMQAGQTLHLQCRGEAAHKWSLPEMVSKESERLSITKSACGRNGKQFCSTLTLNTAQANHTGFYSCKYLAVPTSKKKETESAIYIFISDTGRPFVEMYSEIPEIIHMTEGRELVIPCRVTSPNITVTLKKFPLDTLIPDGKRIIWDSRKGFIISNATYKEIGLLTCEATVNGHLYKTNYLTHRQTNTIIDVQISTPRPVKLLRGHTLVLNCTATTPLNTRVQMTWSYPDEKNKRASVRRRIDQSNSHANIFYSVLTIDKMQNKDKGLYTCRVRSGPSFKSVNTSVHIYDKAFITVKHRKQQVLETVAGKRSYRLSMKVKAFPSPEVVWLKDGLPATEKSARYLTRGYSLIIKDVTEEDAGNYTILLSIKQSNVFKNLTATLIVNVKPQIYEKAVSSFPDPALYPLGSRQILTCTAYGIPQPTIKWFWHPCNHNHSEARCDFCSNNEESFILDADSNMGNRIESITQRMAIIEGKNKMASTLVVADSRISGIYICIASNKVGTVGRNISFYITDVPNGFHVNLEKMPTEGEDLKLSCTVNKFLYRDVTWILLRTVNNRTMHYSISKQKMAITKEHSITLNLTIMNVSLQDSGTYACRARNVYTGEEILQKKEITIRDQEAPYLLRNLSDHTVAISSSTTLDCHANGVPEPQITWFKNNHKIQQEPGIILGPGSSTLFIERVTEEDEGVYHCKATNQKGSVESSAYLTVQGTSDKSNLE
Procedure: (§2) Receptor binding assays were performed in 96-well immunoplates (Maxisorp, Nunc-Immunoplate, Nalge Nunc International, Rochester, N.Y.). Each well was coated with 100 μl of a solution containing 2 μg/ml of rabbit F(ab′)2 to human IgG Fc (Jackson ImmunoResearch, West Grove, Pa.) in 50 mM carbonate buffer at pH 9.6 and incubated at 4° C. overnight. The supernatant was then discarded, the wells were washed three times in washing buffer (0.05% Tween 20 in PBS), and the plate was blocked (150 μl per well) with block buffer (0.5% BSA, 0.01% thimerosal in PBS) at room temperature for one hour. The supernatant was discarded, and the wells were washed.
The wells were filled with 100 μl of a solution containing Flt-IgG (a chimeric Flt-human Fc molecule) at 50 ng/ml in assay buffer (0.5% BSA, 0.05% Tween 20 in PBS). The wells were incubated at room temperature for 1 hour and then washed three times in wash buffer (0.05% Tween 20 in PBS).
(§3) Aliquots of the mixture (100 μl) were added to the precoated microtiter wells and the plate was incubated for 2 hours at room temperature. […] The wells were then incubated with 3,3′, 5,5′-tetramethyl benzidine (0.2 g/liter, Kirkegaard & Perry Laboratories, Gaithersburg, Md.) for about 10 minutes at room temperature. Absorbance was read at 450 nm on a Vmax plate reader (Molecular Devices, Menlo Park, Calif.).

KDR (1-3) monomer [3] = target: T1, KDR (1-3) monomer; assay: competition ELISA vs biotinylated VEGF (8-109), soluble KDR (1-3) captured by MAKD5
Procedure: as §2, with “containing 8” for “containing 2”, “of a monoclonal antibody” for “of rabbit F(ab′)2”, “to KDR known as MAKD5 (Genentech, South San Francisco, Calif.)” for “to human IgG Fc (Jackson ImmunoResearch, West Grove, Pa.)”, “was” for “was then”
as §3, with “of this” for “of the”, “for 1 hour” for “for 2 hours”, “(0.2 gram/liter;” for “(0.2 g/liter,”
Titration curves were fit with a four-parameter nonlinear regression curve-fitting program (KaleidaGraph, Synergy Software, Reading, Pa.).

[4] = target: gD-KDR receptor on CHO cells (UniProt P35968 20-1356); assay: cell-based or functional assay

T1 sequence (P35968 20-327 limits assumed): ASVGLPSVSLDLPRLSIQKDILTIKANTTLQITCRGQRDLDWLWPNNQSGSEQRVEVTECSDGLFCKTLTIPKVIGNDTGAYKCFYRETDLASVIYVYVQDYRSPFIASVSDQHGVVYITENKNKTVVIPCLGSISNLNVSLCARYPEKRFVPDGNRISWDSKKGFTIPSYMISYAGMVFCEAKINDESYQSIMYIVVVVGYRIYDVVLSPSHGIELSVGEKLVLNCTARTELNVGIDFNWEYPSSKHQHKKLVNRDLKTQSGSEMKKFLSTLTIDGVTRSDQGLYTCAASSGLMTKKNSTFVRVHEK

Binder	fold reduction in binding (IC50 variant / IC50 VEGF(1-109)) (KDR (1-3) monomer [1]) [fold]	fold reduction in binding (IC50 variant / IC50 VEGF(1-109)) (Flt-1 (1-3) monomer) [fold]	also measured
His 86** (ligand) APMAEGGGQNHHEVVKFMDVYQRSYCHPIETLVDIFQEYPDEIEYIFKPSCVPLMRCGGCCNDEGLECVPTEESNITMQIMRIKPAQGQHIGEMSFLQHNKCECRPKKD	2	1	
Ile 43* (ligand) APMAEGGGQNHHEVVKFMDVYQRSYCHPIETLVDIFQEYPDEAEYIFKPSCVPLMRCGGCCNDEGLECVPTEESNITMQIMRIKPHQGQHIGEMSFLQHNKCECRPKKD	21	3	
Lys 16 (ligand) APMAEGGGQNHHEVVAFMDVYQRSYCHPIETLVDIFQEYPDEIEYIFKPSCVPLMRCGGCCNDEGLECVPTEESNITMQIMRIKPHQGQHIGEMSFLQHNKCECRPKKD	1	1	
Lys 101 (ligand) APMAEGGGQNHHEVVKFMDVYQRSYCHPIETLVDIFQEYPDEIEYIFKPSCVPLMRCGGCCNDEGLECVPTEESNITMQIMRIKPHQGQHIGEMSFLQHNACECRPKKD	1	1	
Leu 66** (ligand) APMAEGGGQNHHEVVKFMDVYQRSYCHPIETLVDIFQEYPDEIEYIFKPSCVPLMRCGGCCNDEGAECVPTEESNITMQIMRIKPHQGQHIGEMSFLQHNKCECRPKKD	1	10	
Met 18** (ligand) APMAEGGGQNHHEVVKFADVYQRSYCHPIETLVDIFQEYPDEIEYIFKPSCVPLMRCGGCCNDEGLECVPTEESNITMQIMRIKPHQGQHIGEMSFLQHNKCECRPKKD	5	9	
Phe 17* (ligand) APMAEGGGQNHHEVVKAMDVYQRSYCHPIETLVDIFQEYPDEIEYIFKPSCVPLMRCGGCCNDEGLECVPTEESNITMQIMRIKPHQGQHIGEMSFLQHNKCECRPKKD	45	34	
Phe 47** (ligand) APMAEGGGQNHHEVVKFMDVYQRSYCHPIETLVDIFQEYPDEIEYIAKPSCVPLMRCGGCCNDEGLECVPTEESNITMQIMRIKPHQGQHIGEMSFLQHNKCECRPKKD	5	3	
LK-VRB-5s (ligand, human, UniProt P15692-4 27-135, looked up) APMAEGGGQNHHEVVKFMDVYQRSYCHPIETLVDIFQEYPDEIEYIFKPSCVPLMRCGGCCNSEGRECVPTEESNITMQIMRIKPHQGQHIGEMSFLQHNKCECRPKKD			IC50 [2]: 233 nM; Relative Binding Affinity (ratio to native VEGF (8-109)) [2]: 550 fold; IC50 (KDR (1-3) monomer [3]): 1 nM; Relative Binding Affinity (ratio to native VEGF (8-109)) (KDR (1-3) monomer [3]): 1 fold; Phosphorylation-Inducing Activity (KIRA), midpoint concentration [4]: 1 nM; Phosphorylation-Inducing Activity (KIRA), ratio to native VEGF (8-109) [4]: 0.5 fold
Tyr 21** (ligand) APMAEGGGQNHHEVVKFMDVAQRSYCHPIETLVDIFQEYPDEIEYIFKPSCVPLMRCGGCCNDEGLECVPTEESNITMQIMRIKPHQGQHIGEMSFLQHNKCECRPKKD	19	29	
LK-VRB-9s (ligand, human, UniProt P15692-4 27-135, looked up) APMAEGGGQNHHEVVKFMDVYRRSYCHPIETLVDIFQEYPDEIEYIFKPSCVPLMRCGGCCNSEMRECVPTEESNITMQIMRIKPHQGQHIGEMSFLQHNKCECRPKKD			Relative Binding Affinity (ratio to native VEGF (8-109)) [2]: 300 fold; IC50 (KDR (1-3) monomer [3]): 0.5 nM; Relative Binding Affinity (ratio to native VEGF (8-109)) (KDR (1-3) monomer [3]): 0.5 fold
Ile 83* (ligand) APMAEGGGQNHHEVVKFMDVYQRSYCHPIETLVDIFQEYPDEIEYIFKPSCVPLMRCGGCCNDEGLECVPTEESNITMQIMRAKPHQGQHIGEMSFLQHNKCECRPKKD	89	7	
LK-VRB-6s (ligand, human, UniProt P15692-4 27-135, looked up) APMAEGGGQNHHEVVKFMDVYQRSYCHPIETLVDIFQEYPDEIEYIFKPSCVPLMRCGGCCNSEATECVPTEESNITMQIMRIKPHQGQHIGEMSFLQHNKCECRPKKD			IC50 [2]: 4 nM; Relative Binding Affinity (ratio to native VEGF (8-109)) [2]: 10 fold; IC50 (KDR (1-3) monomer [3]): 0.5 nM; Relative Binding Affinity (ratio to native VEGF (8-109)) (KDR (1-3) monomer [3]): 0.5 fold; Phosphorylation-Inducing Activity (KIRA), midpoint concentration [4]: 1 nM; Phosphorylation-Inducing Activity (KIRA), ratio to native VEGF (8-109) [4]: 0.5 fold
Ile 46* (ligand) APMAEGGGQNHHEVVKFMDVYQRSYCHPIETLVDIFQEYPDEIEYAFKPSCVPLMRCGGCCNDEGLECVPTEESNITMQIMRIKPHQGQHIGEMSFLQHNKCECRPKKD	96	4	
Pro 106 (ligand) APMAEGGGQNHHEVVKFMDVYQRSYCHPIETLVDIFQEYPDEIEYIFKPSCVPLMRCGGCCNDEGLECVPTEESNITMQIMRIKPHQGQHIGEMSFLQHNKCECRAKKD	1	1	
Lys 48** (ligand) APMAEGGGQNHHEVVKFMDVYQRSYCHPIETLVDIFQEYPDEIEYIFAPSCVPLMRCGGCCNDEGLECVPTEESNITMQIMRIKPHQGQHIGEMSFLQHNKCECRPKKD	1	1	
Met 81** (ligand) APMAEGGGQNHHEVVKFMDVYQRSYCHPIETLVDIFQEYPDEIEYIFKPSCVPLMRCGGCCNDEGLECVPTEESNITMQIARIKPHQGQHIGEMSFLQHNKCECRPKKD	9	5	
Tyr 25** (ligand) APMAEGGGQNHHEVVKFMDVYQRSACHPIETLVDIFQEYPDEIEYIFKPSCVPLMRCGGCCNDEGLECVPTEESNITMQIMRIKPHQGQHIGEMSFLQHNKCECRPKKD	6	7	
Ile 91 (ligand) APMAEGGGQNHHEVVKFMDVYQRSYCHPIETLVDIFQEYPDEIEYIFKPSCVPLMRCGGCCNDEGLECVPTEESNITMQIMRIKPHQGQHAGEMSFLQHNKCECRPKKD	1	1	

Reference: US20060269997A1 (Genentech, published 2006)
